Source: patent US8367390B2, “Galactanase variants” (Novozymes A/S, priority 2002, dated 2013)

Test: Activity with ONPG, release of o-nitrophenol (ONP) at 405 nm
Assay type: biochemical
Settings: for Time (min) to increase A405 by: 0.025 / Time (min) to increase A405 by: 0.05 / Time (min) to increase A405 by: 0.1 / Time (min) to increase A405 by: 0.2 / Time (min) to increase A405 by: 0.4 / Time (min) to increase A405 by: 0.8 / Time (min) to increase A405 by: 1.6 / Time (min) to increase A405 by: 3.2: Table 8, ONPG 5 mg/ml
Description: The activity of HIGAL and MTGAL with ONPG was tested by mixing 200 microliters (normally 5.5 mg/ml) ONPG in 50 mM sodium acetate, 1 mM CaCl2, 0.01% Triton X-100, pH 6.5 with 25 microliters galactanase (normally 1 mg/ml) in the well of a microtiter plate. Release of o-nitrophenol (ONP) was measured at room temperature at 405 nm every 10 seconds normally for 30 min on a SpectraMaxPlus (Molecular Devices). Effects on the observed release of ONP was studied with varied enzyme concentration, ONPG concentration and with addition of galactose (Gal), beta-1,4-galactobiose (Gal2) (Megazyme), beta-1,4-galactotriose (Gal3), beta-1,4-galactotetraose (Gal4), glucose (Glu), arabinose (Ara), galacturonic acid (GalA), maltose (Mal) or maltotriose (Mal3).
In Tables 8-11 below, incubation times required to increase the observed absorbance at 405 nm by given amounts are listed. Cells marked ‘n.r.’ indicate that the increase in absorbance was not reached in the experiment. In general, the initial increase in absorbance at 405 nm was very slow, but after a lag phase the rate of ONP release often increased drastically—often approximately exponentially. The most likely explanation for the observed kinetics is that ONPG reacts with the enzyme to give an enzyme-galactosyl intermediate which hydrolyses very slowly. Instead, the Gal of the intermediate is released by transglycosylation, initially with ONPG or added sugar as acceptor. In cases where the rate of ONP release increases, these transglycosylation products are even better acceptors than the initial ones. […] More likely, Gal inhibits the subsequent transglycosylation, which requires binding of ONPG to the +1 and +2 subsites, e.g., by binding to the +2 subsite. With 50 mg/ml Gal added (results not shown) release of ONP was even slower with only insignificant increase of absorbance at 405 nm in 30 min.

B1: MTGAL: GH Family 53 galactanase from Myceliophthora thermophila, SEQ ID NO: 1 (wild type parent) (protein, listed as Myceliophthora thermophila)
chain: ALTYRGVDWSSVVVEERAGVSYKNTNGNAQPLENILAANGVNTVRQRVWVNPADGNYNLDYNIAIAKRAKAAGLGVYIDFHYSDTWADPAHQTMPAGWPSDIDNLSWKLYNYTLDAANKLQNAGIQPTIVSIGNEIRAGLLWPTGRTENWANIARLLHSAAWGIKDSSLSPKPKIMIHLDNGWDWGTQNWWYTNVLKQGTLELSDFDMMGVSFYPFYSSSATLSALKSSLDNMAKTWNKEIAVVETNWPISCPNPRYSFPSDVKNIPFSPEGQTTFITNVANIVSSVSRGVGLFYWEPAWIHNANLGSSCADNTMFSQSGQALSSLSVFQRI
modifications: mat_peptide (1)..()
For B1, the “Slowing of ONP release by addition of Gal” value (Gal 5 mg/ml) was “about a factor of two”, the “Time (min) to increase A405 by: 0.025” value (enzyme 28 μg/ml, no sugar) was 40.4 min and the “Time (min) to increase A405 by: 0.05” value (enzyme 28 μg/ml, no sugar) was “n.r”. The “Time (min) to increase A405 by: 0.1” value (enzyme 28 μg/ml, no sugar) was “n.r”, the “Time (min) to increase A405 by: 0.2” value (enzyme 28 μg/ml, no sugar) was “n.r” and the “Time (min) to increase A405 by: 0.4” value (enzyme 28 μg/ml, no sugar) was “n.r”. The “Time (min) to increase A405 by: 0.8” value (enzyme 28 μg/ml, no sugar) was “n.r”, the “Time (min) to increase A405 by: 1.6” value (enzyme 28 μg/ml, no sugar) was “n.r” and the “Time (min) to increase A405 by: 3.2” value (enzyme 28 μg/ml, no sugar) was “n.r”. For the same molecule, the “Time (min) to increase A405 by: 0.025” value (enzyme 55 μg/ml, Gal 5 mg/ml) was 40.2 min, the “Time (min) to increase A405 by: 0.05” value (enzyme 55 μg/ml, Gal 5 mg/ml) was “n.r” and the “Time (min) to increase A405 by: 0.1” value (enzyme 55 μg/ml, Gal 5 mg/ml) was “n.r”. The “Time (min) to increase A405 by: 0.2” value (enzyme 55 μg/ml, Gal 5 mg/ml) was “n.r”, the “Time (min) to increase A405 by: 0.4” value (enzyme 55 μg/ml, Gal 5 mg/ml) was “n.r” and the “Time (min) to increase A405 by: 0.8” value (enzyme 55 μg/ml, Gal 5 mg/ml) was “n.r”. The “Time (min) to increase A405 by: 1.6” value (enzyme 55 μg/ml, Gal 5 mg/ml) was “n.r”, the “Time (min) to increase A405 by: 3.2” value (enzyme 55 μg/ml, Gal 5 mg/ml) was “n.r” and the “Time (min) to increase A405 by: 0.025” value (enzyme 55 μg/ml, no sugar) was 29.9 min. The “Time (min) to increase A405 by: 0.05” value (enzyme 55 μg/ml, no sugar) was 42.5 min, the “Time (min) to increase A405 by: 0.1” value (enzyme 55 μg/ml, no sugar) was 54.5 min and the “Time (min) to increase A405 by: 0.2” value (enzyme 55 μg/ml, no sugar) was “n.r”. The “Time (min) to increase A405 by: 0.4” value (enzyme 55 μg/ml, no sugar) was “n.r”, the “Time (min) to increase A405 by: 0.8” value (enzyme 55 μg/ml, no sugar) was “n.r” and the “Time (min) to increase A405 by: 1.6” value (enzyme 55 μg/ml, no sugar) was “n.r”. The “Time (min) to increase A405 by: 3.2” value (enzyme 55 μg/ml, no sugar) was “n.r”, the “Time (min) to increase A405 by: 0.025” value (enzyme 110 μg/ml, Gal 5 mg/ml) was 26.9 min and the “Time (min) to increase A405 by: 0.05” value (enzyme 110 μg/ml, Gal 5 mg/ml) was 44.5 min. The “Time (min) to increase A405 by: 0.1” value (enzyme 110 μg/ml, Gal 5 mg/ml) was “n.r”, the “Time (min) to increase A405 by: 0.2” value (enzyme 110 μg/ml, Gal 5 mg/ml) was “n.r” and the “Time (min) to increase A405 by: 0.4” value (enzyme 110 μg/ml, Gal 5 mg/ml) was “n.r”. For the same molecule, the “Time (min) to increase A405 by: 0.8” value (enzyme 110 μg/ml, Gal 5 mg/ml) was “n.r”, the “Time (min) to increase A405 by: 1.6” value (enzyme 110 μg/ml, Gal 5 mg/ml) was “n.r” and the “Time (min) to increase A405 by: 3.2” value (enzyme 110 μg/ml, Gal 5 mg/ml) was “n.r”. The “Time (min) to increase A405 by: 0.025” value (enzyme 110 μg/ml, no sugar) was 14.0 min, the “Time (min) to increase A405 by: 0.05” value (enzyme 110 μg/ml, no sugar) was 20.5 min and the “Time (min) to increase A405 by: 0.1” value (enzyme 110 μg/ml, no sugar) was 26.4 min. The “Time (min) to increase A405 by: 0.2” value (enzyme 110 μg/ml, no sugar) was 31.4 min, the “Time (min) to increase A405 by: 0.4” value (enzyme 110 μg/ml, no sugar) was 34.5 min and the “Time (min) to increase A405 by: 0.8” value (enzyme 110 μg/ml, no sugar) was 39.2 min. The “Time (min) to increase A405 by: 1.6” value (enzyme 110 μg/ml, no sugar) was 43.9 min and the “Time (min) to increase A405 by: 3.2” value (enzyme 110 μg/ml, no sugar) was 46.7 min.
